The source of these data is the Human Domainome abundance scans (Beltran et al. 2025).

± gives the uncertainty stated by the source.

To fix the notation:
B1: Intersectin-1, residues 1156 to 1213; numbered along this chain, Q15811 (parent)
chain: AVCQVIGMYDYTAQNDDELAFNKGQIINVLNKEDPDWWKGEVNGQVGLFPSNYVKLTT

This data set covers variants of B1. Description: abundance fitness (aPCA) (normalised: wild type 0, dead -1); higher = more abundant; growth selection in yeast, the domain comes from the species named. The note with it: Homo sapiens.
For the variant AVCQVEGMYDYTAQNDDELAFNKGQIINVLNKEDPDWWKGEVNGQVGLFPSNYVKLTT [I6E], the abundance fitness is -0.013 ± 0.12.
The figure for AVCQVQGMYDYTAQNDDELAFNKGQIINVLNKEDPDWWKGEVNGQVGLFPSNYVKLTT [I6Q] is -0.156 ± 0.17; for AVCQVCGMYDYTAQNDDELAFNKGQIINVLNKEDPDWWKGEVNGQVGLFPSNYVKLTT [I6C] it is -0.386 ± 0.13; for AVCQVSGMYDYTAQNDDELAFNKGQIINVLNKEDPDWWKGEVNGQVGLFPSNYVKLTT [I6S] it is -0.655 ± 0.11.
AVCQVIGIYDYTAQNDDELAFNKGQIINVLNKEDPDWWKGEVNGQVGLFPSNYVKLTT [M8I]: the abundance fitness stood at 0.542 ± 0.16.
In the case of AVCQVIGNYDYTAQNDDELAFNKGQIINVLNKEDPDWWKGEVNGQVGLFPSNYVKLTT [M8N], the abundance fitness is -0.576 ± 0.21.
Consider AVCQVIGDYDYTAQNDDELAFNKGQIINVLNKEDPDWWKGEVNGQVGLFPSNYVKLTT [M8D], for which the abundance fitness was -0.67 ± 0.18.
In the case of AVCQVIGQYDYTAQNDDELAFNKGQIINVLNKEDPDWWKGEVNGQVGLFPSNYVKLTT [M8Q], the abundance fitness is 0.31 ± 0.14.
For the variant AVCQVIGSYDYTAQNDDELAFNKGQIINVLNKEDPDWWKGEVNGQVGLFPSNYVKLTT [M8S], the abundance fitness was -0.233 ± 0.11.
Turning to AVCQVIGEYDYTAQNDDELAFNKGQIINVLNKEDPDWWKGEVNGQVGLFPSNYVKLTT [M8E], the abundance fitness turned out to be 0.541 ± 0.12.
For AVCQVIGYYDYTAQNDDELAFNKGQIINVLNKEDPDWWKGEVNGQVGLFPSNYVKLTT [M8Y], the abundance fitness is -0.472 ± 0.21.
As to AVCQVIGWYDYTAQNDDELAFNKGQIINVLNKEDPDWWKGEVNGQVGLFPSNYVKLTT [M8W], the abundance fitness was -0.3 ± 0.13.
For the variant AVCQVIGRYDYTAQNDDELAFNKGQIINVLNKEDPDWWKGEVNGQVGLFPSNYVKLTT [M8R], the abundance fitness was 0.145 ± 0.08.
Regarding AVCQVIGCYDYTAQNDDELAFNKGQIINVLNKEDPDWWKGEVNGQVGLFPSNYVKLTT [M8C], the abundance fitness is -0.02 ± 0.14.
Turning to AVCQVIGLYDYTAQNDDELAFNKGQIINVLNKEDPDWWKGEVNGQVGLFPSNYVKLTT [M8L], the abundance fitness was determined as 0.333 ± 0.09.
As to AVCQVIGPYDYTAQNDDELAFNKGQIINVLNKEDPDWWKGEVNGQVGLFPSNYVKLTT [M8P], the abundance fitness is -0.914 ± 0.19.
For the variant AVCQVIGHYDYTAQNDDELAFNKGQIINVLNKEDPDWWKGEVNGQVGLFPSNYVKLTT [M8H], the abundance fitness was -0.167 ± 0.2.
Take AVCQVIGFYDYTAQNDDELAFNKGQIINVLNKEDPDWWKGEVNGQVGLFPSNYVKLTT [M8F]: the abundance fitness was -0.286 ± 0.17.
For the variant AVCQVIGAYDYTAQNDDELAFNKGQIINVLNKEDPDWWKGEVNGQVGLFPSNYVKLTT [M8A], the abundance fitness was 0.209 ± 0.091.
Regarding AVCQVIGGYDYTAQNDDELAFNKGQIINVLNKEDPDWWKGEVNGQVGLFPSNYVKLTT [M8G], the abundance fitness was -0.51 ± 0.087.
Then AVCQVIGTYDYTAQNDDELAFNKGQIINVLNKEDPDWWKGEVNGQVGLFPSNYVKLTT [M8T], with -0.002 ± 0.14; and AVCQVIGMEDYTAQNDDELAFNKGQIINVLNKEDPDWWKGEVNGQVGLFPSNYVKLTT [Y9E], with 0.338 ± 0.12.
Then AVCQVIGMVDYTAQNDDELAFNKGQIINVLNKEDPDWWKGEVNGQVGLFPSNYVKLTT [Y9V], with 0.336 ± 0.086; and AVCQVIGMCDYTAQNDDELAFNKGQIINVLNKEDPDWWKGEVNGQVGLFPSNYVKLTT [Y9C], with 0.387 ± 0.12.
In the case of AVCQVIGMRDYTAQNDDELAFNKGQIINVLNKEDPDWWKGEVNGQVGLFPSNYVKLTT [Y9R], the abundance fitness stood at 0.538 ± 0.074.
AVCQVIGMHDYTAQNDDELAFNKGQIINVLNKEDPDWWKGEVNGQVGLFPSNYVKLTT [Y9H]: the abundance fitness amounted to 0.278 ± 0.18.
AVCQVIGMKDYTAQNDDELAFNKGQIINVLNKEDPDWWKGEVNGQVGLFPSNYVKLTT [Y9K]: the abundance fitness was 0.474 ± 0.15.
In the case of AVCQVIGMADYTAQNDDELAFNKGQIINVLNKEDPDWWKGEVNGQVGLFPSNYVKLTT [Y9A], the abundance fitness came out at 0.362 ± 0.1.
On to AVCQVIGMTDYTAQNDDELAFNKGQIINVLNKEDPDWWKGEVNGQVGLFPSNYVKLTT [Y9T], for which the abundance fitness came to 0.257 ± 0.11.
AVCQVIGMQDYTAQNDDELAFNKGQIINVLNKEDPDWWKGEVNGQVGLFPSNYVKLTT [Y9Q]: the abundance fitness was 0.535 ± 0.14.
As for AVCQVIGMPDYTAQNDDELAFNKGQIINVLNKEDPDWWKGEVNGQVGLFPSNYVKLTT [Y9P], the abundance fitness is -0.835 ± 0.2.
The figure for AVCQVIGMNDYTAQNDDELAFNKGQIINVLNKEDPDWWKGEVNGQVGLFPSNYVKLTT [Y9N] is 0.418 ± 0.15; for AVCQVIGMIDYTAQNDDELAFNKGQIINVLNKEDPDWWKGEVNGQVGLFPSNYVKLTT [Y9I] it is 0.431 ± 0.13.
For the variant AVCQVIGMDDYTAQNDDELAFNKGQIINVLNKEDPDWWKGEVNGQVGLFPSNYVKLTT [Y9D], the abundance fitness is 0.196 ± 0.15.
Turning to AVCQVIGMLDYTAQNDDELAFNKGQIINVLNKEDPDWWKGEVNGQVGLFPSNYVKLTT [Y9L], the abundance fitness came to 0.263 ± 0.092.
The figure for AVCQVIGMGDYTAQNDDELAFNKGQIINVLNKEDPDWWKGEVNGQVGLFPSNYVKLTT [Y9G] is -0.164 ± 0.088; for AVCQVIGMFDYTAQNDDELAFNKGQIINVLNKEDPDWWKGEVNGQVGLFPSNYVKLTT [Y9F] it is 0.259 ± 0.13.
In the case of AVCQVIGMYDKTAQNDDELAFNKGQIINVLNKEDPDWWKGEVNGQVGLFPSNYVKLTT [Y11K], the abundance fitness is -0.879 ± 0.23.
The figure for AVCQVIGMYDLTAQNDDELAFNKGQIINVLNKEDPDWWKGEVNGQVGLFPSNYVKLTT [Y11L] is -0.851 ± 0.13; for AVCQVIGMYDHTAQNDDELAFNKGQIINVLNKEDPDWWKGEVNGQVGLFPSNYVKLTT [Y11H] it is 0.077 ± 0.16.
In the case of AVCQVIGMYDITAQNDDELAFNKGQIINVLNKEDPDWWKGEVNGQVGLFPSNYVKLTT [Y11I], the abundance fitness was -0.563 ± 0.2.
The figure for AVCQVIGMYDGTAQNDDELAFNKGQIINVLNKEDPDWWKGEVNGQVGLFPSNYVKLTT [Y11G] is -0.655 ± 0.097.
With AVCQVIGMYDDTAQNDDELAFNKGQIINVLNKEDPDWWKGEVNGQVGLFPSNYVKLTT [Y11D], the abundance fitness was -0.928 ± 0.23.
As to AVCQVIGMYDETAQNDDELAFNKGQIINVLNKEDPDWWKGEVNGQVGLFPSNYVKLTT [Y11E], the abundance fitness was -0.809 ± 0.21.
Turning to AVCQVIGMYDFTAQNDDELAFNKGQIINVLNKEDPDWWKGEVNGQVGLFPSNYVKLTT [Y11F], the abundance fitness was -0.271 ± 0.2.
With AVCQVIGMYDCTAQNDDELAFNKGQIINVLNKEDPDWWKGEVNGQVGLFPSNYVKLTT [Y11C], the abundance fitness was -0.509 ± 0.17.
